The values that follow come from publication PMC3404956, “A Quorum Sensing-Disrupting Brominated Thiophenone with a Promising Therapeutic Potential to Treat Luminescent Vibriosis”.

For the series, the target named is T1, GST-LuxR (Vibrio harveyi, UniProt P21308 1-205).
T1 sequence: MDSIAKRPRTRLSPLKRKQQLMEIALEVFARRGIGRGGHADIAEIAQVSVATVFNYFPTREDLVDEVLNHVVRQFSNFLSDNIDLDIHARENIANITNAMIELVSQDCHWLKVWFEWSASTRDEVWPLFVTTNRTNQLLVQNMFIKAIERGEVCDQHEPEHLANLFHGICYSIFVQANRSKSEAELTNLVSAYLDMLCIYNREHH
Nature of the series: fluorescence anisotropy; no thiophenone; Kd value only in Figure 4B; 30°C; annealing in NaCl-Tris-EDTA buffer; binding buffer, salt and pH not stated (as in ref 37); ex 480 nm, em 535 nm. The note with it: protein: recombinant; chain copies: 2; label: 5'-fluorescein on strand 1; blunt. A general note: In fluorescence polarisation assays a small probe gives low polarisation when free and higher when bound to something large.

B1: V. harveyi consensus LuxR binding sequence (dsDNA)
DNA 1: TATTGATAAATTTATCAATAA
DNA 2: TTATTGATAAATTTATCAATA
For the molecule B1, the binding result is recorded as “binds”.
